± gives the uncertainty stated by the source.

The chains are these.
B1: POU domain, class 4, transcription factor 2, residues 256 to 327; numbered along this chain, Q12837 (parent)
chain: RDLEAFAERFKQRRIKLGVTQADVGSALANLKIPGVGSLSQSTICRFESLTLSHNNMIALKPILQAWLEEAE

This data set covers variants of B1. As to the kind of experiment: abundance fitness (aPCA) (normalised: wild type 0, dead -1); higher = more abundant; growth selection in yeast, the domain comes from the species named. The note with it: Homo sapiens.
Consider RDLEAFAERFKQRRIKLGVYQADVGSALANLKIPGVGSLSQSTICRFESLTLSHNNMIALKPILQAWLEEAE [T20Y], for which the abundance fitness was -1.05 ± 0.25.

On to RDLEAFAERFKQRRIKLGVNQADVGSALANLKIPGVGSLSQSTICRFESLTLSHNNMIALKPILQAWLEEAE [T20N], for which the abundance fitness was -0.559 ± 0.4.

As to RDLEAFAERFKQRRIKLGVCQADVGSALANLKIPGVGSLSQSTICRFESLTLSHNNMIALKPILQAWLEEAE [T20C], the abundance fitness was -0.338 ± 0.1.

As for RDLEAFAERFKQRRIKLGVGQADVGSALANLKIPGVGSLSQSTICRFESLTLSHNNMIALKPILQAWLEEAE [T20G], the abundance fitness was -0.419 ± 0.071.

On to RDLEAFAERFKQRRIKLGVIQADVGSALANLKIPGVGSLSQSTICRFESLTLSHNNMIALKPILQAWLEEAE [T20I], for which the abundance fitness was -0.916 ± 0.34.

RDLEAFAERFKQRRIKLGVWQADVGSALANLKIPGVGSLSQSTICRFESLTLSHNNMIALKPILQAWLEEAE [T20W]: the abundance fitness is -0.731 ± 0.17.

As for RDLEAFAERFKQRRIKLGVAQADVGSALANLKIPGVGSLSQSTICRFESLTLSHNNMIALKPILQAWLEEAE [T20A], the abundance fitness was -0.195 ± 0.053.

RDLEAFAERFKQRRIKLGVRQADVGSALANLKIPGVGSLSQSTICRFESLTLSHNNMIALKPILQAWLEEAE [T20R]: the abundance fitness is -0.464 ± 0.054.

Consider RDLEAFAERFKQRRIKLGVEQADVGSALANLKIPGVGSLSQSTICRFESLTLSHNNMIALKPILQAWLEEAE [T20E], for which the abundance fitness was -0.325 ± 0.12.

For RDLEAFAERFKQRRIKLGVHQADVGSALANLKIPGVGSLSQSTICRFESLTLSHNNMIALKPILQAWLEEAE [T20H], the abundance fitness was -0.736 ± 0.17.

As to RDLEAFAERFKQRRIKLGVPQADVGSALANLKIPGVGSLSQSTICRFESLTLSHNNMIALKPILQAWLEEAE [T20P], the abundance fitness is -0.473 ± 0.074.

Turning to RDLEAFAERFKQRRIKLGVLQADVGSALANLKIPGVGSLSQSTICRFESLTLSHNNMIALKPILQAWLEEAE [T20L], the abundance fitness was -0.607 ± 0.083.

On to RDLEAFAERFKQRRIKLGVKQADVGSALANLKIPGVGSLSQSTICRFESLTLSHNNMIALKPILQAWLEEAE [T20K], for which the abundance fitness is -0.159 ± 0.083.

Take RDLEAFAERFKQRRIKLGVQQADVGSALANLKIPGVGSLSQSTICRFESLTLSHNNMIALKPILQAWLEEAE [T20Q]: the abundance fitness was -0.555 ± 0.13.

Consider RDLEAFAERFKQRRIKLGVSQADVGSALANLKIPGVGSLSQSTICRFESLTLSHNNMIALKPILQAWLEEAE [T20S], for which the abundance fitness was -0.067 ± 0.045.

As to RDLEAFAERFKQRRIKLGVDQADVGSALANLKIPGVGSLSQSTICRFESLTLSHNNMIALKPILQAWLEEAE [T20D], the abundance fitness is -0.254 ± 0.11.

Take RDLEAFAERFKQRRIKLGVMQADVGSALANLKIPGVGSLSQSTICRFESLTLSHNNMIALKPILQAWLEEAE [T20M]: the abundance fitness is -0.344 ± 0.14.

Regarding RDLEAFAERFKQRRIKLGVVQADVGSALANLKIPGVGSLSQSTICRFESLTLSHNNMIALKPILQAWLEEAE [T20V], the abundance fitness is -0.964 ± 0.22.

Turning to RDLEAFAERFKQRRIKLGKTQADVGSALANLKIPGVGSLSQSTICRFESLTLSHNNMIALKPILQAWLEEAE [V19K], the abundance fitness was found to be 0.258 ± 0.32.

As to RDLEAFAERFKQRRIKLGITQADVGSALANLKIPGVGSLSQSTICRFESLTLSHNNMIALKPILQAWLEEAE [V19I], the abundance fitness is -0.189 ± 0.11.

Take RDLEAFAERFKQRRIKLGGTQADVGSALANLKIPGVGSLSQSTICRFESLTLSHNNMIALKPILQAWLEEAE [V19G]: the abundance fitness was -0.927 ± 0.18.

On to RDLEAFAERFKQRRIKLGNTQADVGSALANLKIPGVGSLSQSTICRFESLTLSHNNMIALKPILQAWLEEAE [V19N], for which the abundance fitness was -0.093 ± 0.2.

For RDLEAFAERFKQRRIKLGSTQADVGSALANLKIPGVGSLSQSTICRFESLTLSHNNMIALKPILQAWLEEAE [V19S], the abundance fitness was -0.092 ± 0.052.

On to RDLEAFAERFKQRRIKLGPTQADVGSALANLKIPGVGSLSQSTICRFESLTLSHNNMIALKPILQAWLEEAE [V19P], for which the abundance fitness is -0.987 ± 0.14.

In the case of RDLEAFAERFKQRRIKLGDTQADVGSALANLKIPGVGSLSQSTICRFESLTLSHNNMIALKPILQAWLEEAE [V19D], the abundance fitness is -0.614 ± 0.12.

As for RDLEAFAERFKQRRIKLGRTQADVGSALANLKIPGVGSLSQSTICRFESLTLSHNNMIALKPILQAWLEEAE [V19R], the abundance fitness amounted to 0.03 ± 0.042.

Regarding RDLEAFAERFKQRRIKLGQTQADVGSALANLKIPGVGSLSQSTICRFESLTLSHNNMIALKPILQAWLEEAE [V19Q], the abundance fitness was -0.027 ± 0.1.

For RDLEAFAERFKQRRIKLGHTQADVGSALANLKIPGVGSLSQSTICRFESLTLSHNNMIALKPILQAWLEEAE [V19H], the abundance fitness was -0.12 ± 0.13.

Consider RDLEAFAERFKQRRIKLGFTQADVGSALANLKIPGVGSLSQSTICRFESLTLSHNNMIALKPILQAWLEEAE [V19F], for which the abundance fitness is -0.103 ± 0.13.

For RDLEAFAERFKQRRIKLGLTQADVGSALANLKIPGVGSLSQSTICRFESLTLSHNNMIALKPILQAWLEEAE [V19L], the abundance fitness worked out at 0.004 ± 0.049.

In the case of RDLEAFAERFKQRRIKLGTTQADVGSALANLKIPGVGSLSQSTICRFESLTLSHNNMIALKPILQAWLEEAE [V19T], the abundance fitness was -0.307 ± 0.067.

As for RDLEAFAERFKQRRIKLGATQADVGSALANLKIPGVGSLSQSTICRFESLTLSHNNMIALKPILQAWLEEAE [V19A], the abundance fitness came out at 0.018 ± 0.063.

As to RDLEAFAERFKQRRIKLGMTQADVGSALANLKIPGVGSLSQSTICRFESLTLSHNNMIALKPILQAWLEEAE [V19M], the abundance fitness stood at 0.055 ± 0.081.

On to RDLEAFAERFKQRRIPLGVTQADVGSALANLKIPGVGSLSQSTICRFESLTLSHNNMIALKPILQAWLEEAE [K16P], for which the abundance fitness was -1.1 ± 0.28.

Turning to RDLEAFAERFKQRRIQLGVTQADVGSALANLKIPGVGSLSQSTICRFESLTLSHNNMIALKPILQAWLEEAE [K16Q], the abundance fitness stood at 0.004 ± 0.076.

On to RDLEAFAERFKQRRIWLGVTQADVGSALANLKIPGVGSLSQSTICRFESLTLSHNNMIALKPILQAWLEEAE [K16W], for which the abundance fitness is -0.403 ± 0.14.

Turning to RDLEAFAERFKQRRINLGVTQADVGSALANLKIPGVGSLSQSTICRFESLTLSHNNMIALKPILQAWLEEAE [K16N], the abundance fitness is -0.55 ± 0.49.

Source of the values: the Human Domainome abundance scans (Beltran et al. 2025).
